One molecule from patent US6825325 (FRAUNHOFER GESELLSCHAFT ZUR FORDERUNG DER ANGEWANDTEN …, dated 2004) can be followed below.

In test [1] the target is bacterially expressed GST-protein alone (Schistosoma japonicum, UniProt P08515 1-218 = GST). Nature of the test: ELISA of scFvs (member of the panel of 10). On the technique in general: In an ELISA, binding on a coated surface is turned into a signal by an enzyme label.
In test [2] the target is T1, GST-30K fusion protein (bacterially expressed 30K TMV movement protein fused to GST) (Schistosoma japonicum; Tobacco mosaic …, UniProt P03583 1-268).
T1 construct: not shown: glutathione S-transferase, Schistosoma japonicum (Pharmacia GST-System)
T1 sequence (looked up): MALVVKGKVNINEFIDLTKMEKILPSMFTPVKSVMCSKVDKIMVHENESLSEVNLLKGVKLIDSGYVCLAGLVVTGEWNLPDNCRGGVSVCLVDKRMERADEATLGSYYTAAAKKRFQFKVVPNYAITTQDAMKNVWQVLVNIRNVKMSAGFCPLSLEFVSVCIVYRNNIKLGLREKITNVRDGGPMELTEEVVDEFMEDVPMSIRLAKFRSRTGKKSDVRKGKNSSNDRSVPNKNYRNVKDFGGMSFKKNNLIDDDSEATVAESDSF
In words: ELISA of scFvs (member of the panel of 10).

bacterially expressed GST-protein alone, sequence (P08515 whole entry, the tested form may be a part): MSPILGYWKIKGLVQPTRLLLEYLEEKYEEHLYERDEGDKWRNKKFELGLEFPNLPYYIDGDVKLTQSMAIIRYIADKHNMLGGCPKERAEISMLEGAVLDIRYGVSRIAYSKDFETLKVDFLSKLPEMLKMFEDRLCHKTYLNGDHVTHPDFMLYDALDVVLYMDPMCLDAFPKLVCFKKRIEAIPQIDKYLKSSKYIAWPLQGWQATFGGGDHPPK

B1: scFv 30-2 (scFv)
scFv: EVKLQQSGAELVKPGASVKISCKASDYSFTGYNMNWVKQSHGKSLEWIGNINPYYGSTSYNQKFKGKATLTVDKSSSTAYMQLNSLTSEDSAVYYCAVGGNYVDWFAYWGQGTLVTVSSGGGGSGGGGSGGGGSDILLTQSPLSLPVSLGDHASISCRSSQSLVHSNGNTYLHWYLQNPGQSPKLLIYKVSNRFSGIPDRFSGSGSGTDFTLKISRVEAEDLGVYFCSQSTHVPYTFGGGTKLELKRAVDAAAEQKLISEEDLNGAA
notes: also called 30K specific scFv No. 2; scFv 30K-2
For B1, the figures for the binding result in test [1] and in test [2] were “no binding” and “binds”, respectively.
